Measured values published in patent US7211424B1, “Mammalian Subtilisin/kexin isozyme SKI-1: a proprotein convertase with a unique cleavage specificity” (Institut de Recherches Cliniques de Montreal, priority 1999, dated 2007).

T1: BTMD-SKI-1 (Homo sapiens, UniProt Q14703)
T1 sequence (Q14703 187-997 limits assumed): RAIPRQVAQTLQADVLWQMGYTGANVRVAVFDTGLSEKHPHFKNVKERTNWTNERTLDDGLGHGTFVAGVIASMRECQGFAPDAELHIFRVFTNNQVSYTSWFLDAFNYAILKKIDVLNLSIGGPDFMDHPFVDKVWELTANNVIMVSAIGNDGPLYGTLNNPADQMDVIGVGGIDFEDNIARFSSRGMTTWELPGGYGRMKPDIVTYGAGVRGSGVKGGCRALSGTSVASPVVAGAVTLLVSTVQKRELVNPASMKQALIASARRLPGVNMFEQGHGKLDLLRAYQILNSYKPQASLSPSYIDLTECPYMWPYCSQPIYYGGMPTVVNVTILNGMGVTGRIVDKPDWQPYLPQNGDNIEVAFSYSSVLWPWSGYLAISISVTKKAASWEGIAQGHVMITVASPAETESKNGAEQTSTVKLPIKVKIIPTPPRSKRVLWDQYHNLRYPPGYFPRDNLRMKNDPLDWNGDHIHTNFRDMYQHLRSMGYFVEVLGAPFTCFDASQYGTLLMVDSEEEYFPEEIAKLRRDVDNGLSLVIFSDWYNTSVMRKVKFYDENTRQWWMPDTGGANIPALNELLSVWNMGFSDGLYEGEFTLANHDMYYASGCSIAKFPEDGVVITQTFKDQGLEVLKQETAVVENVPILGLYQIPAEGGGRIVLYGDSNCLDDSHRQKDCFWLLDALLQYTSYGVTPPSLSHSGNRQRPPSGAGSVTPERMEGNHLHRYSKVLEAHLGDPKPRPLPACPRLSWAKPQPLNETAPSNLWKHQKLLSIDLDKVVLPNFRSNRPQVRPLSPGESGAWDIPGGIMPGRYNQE
T1 sequence (Q14703 17-137 partner limits assumed): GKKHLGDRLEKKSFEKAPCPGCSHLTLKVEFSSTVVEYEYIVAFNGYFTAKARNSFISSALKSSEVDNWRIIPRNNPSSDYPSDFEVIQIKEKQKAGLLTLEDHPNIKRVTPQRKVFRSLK

T2: SKI-1 (Homo sapiens, UniProt Q14703)
T2 sequence (Q14703 187-998 limits assumed): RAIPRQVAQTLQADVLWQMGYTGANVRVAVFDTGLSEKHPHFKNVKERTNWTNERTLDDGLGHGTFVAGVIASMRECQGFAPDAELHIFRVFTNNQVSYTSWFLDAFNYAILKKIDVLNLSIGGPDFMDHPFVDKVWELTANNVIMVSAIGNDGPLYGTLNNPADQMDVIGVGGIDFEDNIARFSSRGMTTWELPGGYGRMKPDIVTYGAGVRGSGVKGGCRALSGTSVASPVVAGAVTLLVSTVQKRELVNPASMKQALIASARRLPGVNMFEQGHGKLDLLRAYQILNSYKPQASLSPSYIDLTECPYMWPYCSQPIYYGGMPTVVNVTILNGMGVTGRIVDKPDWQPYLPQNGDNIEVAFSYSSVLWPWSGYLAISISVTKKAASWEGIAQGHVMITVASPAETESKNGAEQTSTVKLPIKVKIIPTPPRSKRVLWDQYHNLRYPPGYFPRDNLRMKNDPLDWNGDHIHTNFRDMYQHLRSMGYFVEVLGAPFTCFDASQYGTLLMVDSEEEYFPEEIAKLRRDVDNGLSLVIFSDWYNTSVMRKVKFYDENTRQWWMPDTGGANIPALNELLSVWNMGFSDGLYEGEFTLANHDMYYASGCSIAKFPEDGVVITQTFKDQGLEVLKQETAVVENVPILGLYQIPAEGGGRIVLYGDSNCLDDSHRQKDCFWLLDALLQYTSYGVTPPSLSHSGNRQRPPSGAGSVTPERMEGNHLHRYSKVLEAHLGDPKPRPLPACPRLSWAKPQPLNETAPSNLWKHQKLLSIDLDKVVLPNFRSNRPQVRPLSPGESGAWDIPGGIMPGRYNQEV

T3: SKI-1 protease (Homo sapiens, UniProt Q14703)
T3 construct: endogenous in cells; the enzyme itself is not transfected
T3 sequence (Q14703 187-1052): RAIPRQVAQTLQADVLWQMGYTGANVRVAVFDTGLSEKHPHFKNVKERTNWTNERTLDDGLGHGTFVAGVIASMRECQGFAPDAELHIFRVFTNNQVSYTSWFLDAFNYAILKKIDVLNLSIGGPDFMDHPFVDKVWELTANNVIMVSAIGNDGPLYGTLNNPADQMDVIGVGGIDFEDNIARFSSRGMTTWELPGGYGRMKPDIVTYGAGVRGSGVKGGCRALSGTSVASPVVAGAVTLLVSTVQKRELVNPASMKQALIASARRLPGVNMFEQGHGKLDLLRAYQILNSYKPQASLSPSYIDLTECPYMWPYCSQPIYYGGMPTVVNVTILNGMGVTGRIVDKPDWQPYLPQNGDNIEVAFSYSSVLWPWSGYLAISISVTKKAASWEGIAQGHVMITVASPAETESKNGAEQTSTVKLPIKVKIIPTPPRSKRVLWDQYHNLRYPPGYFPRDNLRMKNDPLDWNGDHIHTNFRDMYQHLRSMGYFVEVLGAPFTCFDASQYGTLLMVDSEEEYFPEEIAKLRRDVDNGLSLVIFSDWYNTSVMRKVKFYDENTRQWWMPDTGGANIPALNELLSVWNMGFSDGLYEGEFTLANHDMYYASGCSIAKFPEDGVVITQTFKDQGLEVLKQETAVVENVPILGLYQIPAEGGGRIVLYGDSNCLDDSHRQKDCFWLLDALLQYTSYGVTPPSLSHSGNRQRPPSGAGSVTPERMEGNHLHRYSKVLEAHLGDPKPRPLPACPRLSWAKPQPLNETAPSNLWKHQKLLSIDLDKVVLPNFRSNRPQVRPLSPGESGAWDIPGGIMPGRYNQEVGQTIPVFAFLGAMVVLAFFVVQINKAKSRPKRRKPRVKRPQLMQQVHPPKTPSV

B1: ProSKI-1: the 188 amino acids that make up the signal peptide and the prosegment of SKI-1, expressed in HK293 cells (protein)
chain: GKKHLGDRLEKKSFEKAPCPGCSHLTLKVEFSSTVVEYEYIVAFNGYFTAKARNSFISSALKSSEVDNWRIIPRNNPSSDYPSDFEVIQIKEKQKAGLLTLEDHPNIKRVTPQRKVFRSLKYAESDPTVPCNETRWSQKWQSSRPLRRASLSLGSGFWHATGRHSSRRLLRA

Key:
BTMD-SKI-1 = molecular target: T1, BTMD-SKI-1; experiment: biochemical; format: biochemical
SKI-1 = molecular target: T2, SKI-1; format: biochemical; settings: overnight 37° C., pH 6.0; PMSF 0.5 mM + pAPMSF 50 μM, o-phenanthroline 5 mM, EDTA 10 mM
shed-hSKI-1 = molecular target: T4, shed-hSKI-1 (Homo sapiens, UniProt Q14703); experiment: Hydrolysis of quenched fluorogenic substrates by shed-hSKI-1; format: biochemical; settings: in the presence of 10 mM EDTA
T4 construct: SKI-1 is further processed to remove the transmembrane domain that keeps it integrated in the ER membrane, which generates a SKI-1 soluble form; made in house; host or cells: HK293 cells stably transfected with full-length hSKI-1 in pcDNA3; shed enzyme in the medium
Procedure: For digestions, each peptide was typically reacted at 37° C. with 10 μl of the concentrated enzyme preparation in a buffer consisting of 50 mM HEPES (N-2-Hydroxyethyl piperazine-N′-2 EthaneSulfonic acid) (ICN Biomedicals Inc), 50 mM MES (2-[N-Morpholino] EthaneSulfonic acid) (Sigma Chem Co.), and 3 mM Ca^2+-acetate (pH 6.5). The digestion products were separated by RP-HPLC on a Beckman 5 μm Ultrasphere C18 column (0.2×25 cm) and eluted with a 1%/min linear gradient of aqueous 0.1% TFA/CH3CN ([…]) at a flow rate of 1 ml/min. The collected peptides were characterized by mass spectrometry and amino acid composition, which was also used to quantitate the amount of various substrates and products. The digestions of the quenched fluorogenic peptides were analyzed by RP-HPLC using a dual UV (210 nm) and fluorescence (excitation and emission wavelengths of 320 and 420 nm, respectively) detector (Rainin).
Km(app), Vmax(app) and Ki(app) determinations—Following digestion reactions with increasing substrate concentrations, the products were separated by RP-HPLC. The rate of substrate hydrolysis was obtained from the integrated peak areas of the chromatograms. […] For the two quenched peptides, kinetic parameters were determined as described (17).

SKI-1 protease = molecular target: T3, SKI-1 protease; experiment: SREBP-1 processing in stable HK293 cell lines overexpressing ProSKI-1 and SREBP-1 (immunoblot); format: cell-based
Procedure: Cell Culture: HK293 cells were maintained as monolayers in Dulbecco's modified Eagle's medium containing 100 units/ml penicillin and 100 μg/ml streptomycin sulfate (medium A) supplemented with 10% fetal calf serum. 24 hours before RNA and protein extractions medium A was supplemented with 5% lipoprotein deficient serum, 50 μM mevalonate (Sigma), 50 μM compactin (Sigma) and with no sterols or 1 μg/ml of 25-hydroxy-cholesterol and 10 μg/ml of cholesterol. 4 hours before protein extraction 25 μg/ml N-acetyl-leucinyl—leucinyl norleucinal was added. Total RNA was isolated with Trizol (Gibco BRL) reagent according to the instructions of the manufacturer. In order to extract proteins cells were washed and collected in PBS with protease inhibitors ( ). After addition of buffer A (Triton×100 1%,50 mM tris maleate, 2 mM CaCl2, inhibitor coctail ( ), and ALLN) cells were mixed with pipette and allowed to swell on ice for 20 minutes Then the solution was centrifuged for 5 minutes at 15, 000 rpm and supernatants representing membrane proteins were collected and stored until analyzed at −70° C. […]
Transfections: HK293 cells were plated at a density of 5×10^5 /60 mm dish in medium A with 10% fetal calf serum and were cultured until they were 40–60% confluent. […] Colonies were isolated and formed stable cell lines were analyzed by immunoblotting with ProSKI-1 and SREBP-1 antibodies. […]

furin = furin (Homo sapiens, UniProt P09958); experiment: Specificity of ProSKI-1: processing of neurotrophin-3 (NT-3), a substrate not processed by SKI-1; format: cell-based
Sequence of furin (P09958 108-794, species assumed): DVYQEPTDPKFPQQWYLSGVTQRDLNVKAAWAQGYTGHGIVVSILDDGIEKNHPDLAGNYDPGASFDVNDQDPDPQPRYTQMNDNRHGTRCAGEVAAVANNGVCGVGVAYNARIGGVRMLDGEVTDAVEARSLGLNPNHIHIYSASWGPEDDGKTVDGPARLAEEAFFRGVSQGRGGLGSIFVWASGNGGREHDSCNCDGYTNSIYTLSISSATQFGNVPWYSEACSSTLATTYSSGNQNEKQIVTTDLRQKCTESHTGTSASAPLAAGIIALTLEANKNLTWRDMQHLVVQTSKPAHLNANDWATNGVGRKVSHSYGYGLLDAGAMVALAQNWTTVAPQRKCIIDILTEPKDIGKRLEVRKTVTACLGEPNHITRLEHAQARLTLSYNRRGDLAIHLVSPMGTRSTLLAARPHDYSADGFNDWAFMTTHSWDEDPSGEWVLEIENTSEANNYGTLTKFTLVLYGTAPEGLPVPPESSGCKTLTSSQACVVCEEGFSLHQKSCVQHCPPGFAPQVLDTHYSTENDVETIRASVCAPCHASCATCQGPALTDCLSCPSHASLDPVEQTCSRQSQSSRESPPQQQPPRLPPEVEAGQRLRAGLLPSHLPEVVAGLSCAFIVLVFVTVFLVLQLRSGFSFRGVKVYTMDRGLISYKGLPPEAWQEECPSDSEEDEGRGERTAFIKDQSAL

[1] = tested on: SREBP mediated transcription; experiment: SREBP target gene mRNA in HK293 cells overexpressing ProSKI-1 and SREBP-1 (Northern blot); format: cell-based, human
Procedure: Cell Culture: […] Total RNA was isolated with Trizol (Gibco BRL) reagent according to the instructions of the manufacturer. In order to extract proteins cells were washed and collected in PBS with protease inhibitors ( ). […] Samples were shaken at 4 C for 1 hour and centrifuged and the supernatant was frozen in aliquots at -70° C. Transfections: […] On day two medium containing appropriate selection agents (800 μg/ml Geneticin for pcDNA3neo, […] Zeocin for pcDNA3zeo) were added. The medium was changed every two days until defined colonies were evident. Colonies were isolated and formed stable cell lines were analyzed by immunoblotting with ProSKI-1 and SREBP-1 antibodies. […] After transfer filters were crosslinked by UV irradiation in a Stratalinker (Stratagene). Filters were prehydridized at 42° C. for 1 hour and hybridized with random labeled ^32P cDNA probes for 16-20 hours. UltrahybTM buffer (Ambion) was used. After hybridization filters were washed and exposed to film for indicated time and bands were quantified by densitometry. Primer pairs were used to clone cDNA probes: HMG CoA reductase [[NT] ID NO: 21)] [[NT] ID NO: 22)], farnesyl diphosphate [[NT] ID NO: 23)], [[NT] ID NO: 24)], Fatty acid synthase [[NT] ID NO: 25)], [[NT] ID NO: 26)], Acetyl CoA carboxylase [[NT] ID NO: 27)], [5' [NT]3 (SEQ ID NO: 28)], SREBP-1 [[NT] ID NO: 29)], [[NT] ID NO: 30)]. […]

level and furin-derived processing of NT-3 (furin)	Molecule	Hydrolysis of SREBP-2 peptide (% of control) (BTMD-SKI-1)	inhibition of the processing of proBDNF by SKI-1 (SKI-1)	cleavage of quenched fluorogenic peptide at the RSLK↓ site (shed-hSKI-1)	processing of cytoplasmic proSREBP-1 into intermediate form(s) (SKI-1 protease; HK293 cell lines overexpressing SREBP-1 together with ProSKI-1)	nuclear SREBP-1 (SKI-1 protease; HK293 nuclear extracts, absence of sterols)	mRNA levels of LDL-receptor, HMG-CoA reductase, farnesyl diphosphate and fatty acid synthase ([1]; HK293 cells, with and without lipids, early passages of previously frozen cell lines)	target gene mRNA levels ([1]; same clones kept in culture for further passages)
	O=C(O)CN(CCN(CC(=O)O)CC(=O)O)CC(=O)O [EDTA]	0 % of control	effectively inhibit	completely abolished				
unaffected	B1				formation of the intermediate form(s) of SREBP-1 was abolished	Only minute amounts of nuclear SREBPs were detected	greatly reduced	normal or even higher than in control cells
